Experimental data published in patent publication US20210371505A1.

Legend:
Experiment in all cases: cell-based or functional assay
[1] = biological target: Hemagglutinin of influenza virus A/Aichi/02/1968-PR8-X31 (H3N2) (Influenza A virus A/Aichi/02/1968-PR8-X31 (H3N2)) (UniProt P03437)
[2] = biological target: Hemagglutinin of influenza virus A/Philippines/01/1982 (H3N2) (Influenza A virus A/Philippines/01/1982 (H3N2))
[3] = biological target: Hemagglutinin of influenza virus A/Shanghai/01/2013-PR8 (H7N9) (Influenza A virus A/Shanghai/01/2013-PR8 (H7N9))

## Irrelevant/negative hIgG1 control (antibody)
[1]
  IC50 of neutralization, cell viability microneutralization assay on MDCK cells: > 833 nM
[2]
  IC50 of neutralization, cell viability microneutralization assay on MDCK cells: > 3.33 µM
[3]
  IC50 of neutralization, cell viability microneutralization assay on MDCK cells: > 6.67 µM
